For data set [1], the system named is monocyte enriched peripheral blood mononuclear cells (MEPs). Briefly: SDHB c.136C>U RNA editing in interferon-treated MEPs (RT-PCR). It is filed as cell-based, human. Particulars: normoxic or hypoxic MEPs, 24 hours; IFN1 600 U per ml, IFNγ 200 U per ml; vs untreated. From the text:
The TLA-HEK293T™ 293T human embryonic kidney cell-line was obtained from Open Biosystems® (Huntsville, Ala.). Peripheral blood mononuclear cells of anonymous platelet donors were isolated from peripheral blood in Trima Accel™ leukoreduction system chambers (Terumo BCT®, Lakewood, Colo.) after thrombocytapheresis, in accordance with a protocol approved by the institutional review board of Roswell Park Cancer Institute. A density gradient centrifugation method using polysucrose-containing Lymphocyte Separation Medium (Mediatech®, Manassas, Va.) was used for PBMC isolation. […]
For hypoxia, cells were cultured under 1% O2, 5% CO2 and 94% N2 in an Xvivo™ System (Biospherix®, Lacona, N.Y.). […] Differential viability of MEPs after 1-day culture in normoxia versus hypoxia was not observed as evaluated by Trypan blue stain. […]
SDHB gene expression and c.136C>U RNA editing was quantified by RT-PCR. […]

The next data set deals with NK cells. Briefly: TM7SF3 C>U RNA editing in NK cells. Conditions: cellular crowding with hypoxia, IFN-γ 50 ng/ml. It is filed as cell-based, human. On the procedure:
The HuT78, JVM3 and NK-92 cell-lines were obtained from ATCC. Hut 78 cells were cultured in IMDM (ATCC) containing 20% Fetal Bovine serum (FBS) (Sigma-Aldrich), JVM3 cells were cultured in RPMI (ATCC) containing 10% FBS and NK-92 cells were cultured in Alpha Minimum Essential medium without ribonucleosides and deoxyribonucleosides (Life Technologies) but with 2 mM L-glutamine and 1.5 g/L sodium bicarbonate as well as 0.2 mM inositol, 0.1 mM 2-mercaptoethanol, 0.02 mM folic acid, 500 U/ml IL-2 (Aldesleukin—a kind gift from Novartis), 12.5% horse serum (ATCC) and 12.5% FBS. […]
Total RNA was isolated and reverse transcribed to generate cDNAs. […] To quantify RNA editing level, the major and minor chromatogram peak heights at putative edited nucleotides were quantified with Sequencher 5.0/5.1 software (Gene Codes, MI). […] For quantitative PCR to assess APOBEC3G and APOBEC3F gene expression, reactions using LightCycler™ 480 Probes Master and SYBR™ Green I dye were performed on a LightCycler™ 480 System (Roche). Quantification cycle (Cq) values were calculated by the instrument software using the maximum second derivative method, and the mean Cq value of duplicate PCR reactions was used for analysis.

B1: IFNγ: Human IFNγ (PBL Assay Science; PeproTech in Example 3) (protein, UniProt P01579 24-161, looked up)
Interferon gamma: QDPYVKEAENLKKYFNAGHSDVADNGTLFLGILKNWKEESDRKIMQSQIVSFYFKLFKNFKDDQSIQKSVETIKEDMNVKFFNSNKKKRDDFEKLTNYSVTDLNVQRKAIHELIQVMAELSPAAKTGKRKRSQMLFRG
Take B1: the “increase of SDHB c.136C>U RNA editing level” value in data set [1] is given as approximately 3 fold. Besides, in the data set with NK cells, the “RNA editing in TM7SF3” value is recorded as “did not further increase”.

The record behind these values is patent US20190352644A1, “INHIBITION OF MITOCHONDRIAL HYPOXIC STRESS INDUCED RNA EDITING BY APOBEC3G CYTIDINE DEAMINASE” (Health Research, Inc., priority 2015, published 2019).
